According to US20210198366A1 (NGM BIOPHARMACEUTICALS, published 2021):

B2: soluble human B7-H7-Fc fusion protein (extracellular region of human B7-H7, aa 23-344, and a human Fc sequence) (Fc fusion, not shown: a dimerising Fc or GST)
chain: IFPLAFFIYVPMNEQIVIGRLDEDIILPSSFERGSEVVIHWKYQDSYKVHSYYKGSDHLESQDPRYANRTSLFYNEIQNGNASLFFRRVSLLDEGIYTCYVGTAIQVITNKVVLKVGVFLTPVMKYEKRNTNSFLICSVLSVYPRPIITWKMDNTPISENNMEETGSLDSFSINSPLNITGSNSSYECTIENSLLKQTWTGRWTMKDGLHKMQSEHVSLSCQPVNDYFSPNQDFKVTWSRMKSGTFSVLAYYLSSSQNTIINESRFSWNKELINQSDFSMNLMDLNLSDSGEYLCNISSDEYTLLTIHTVHVEPSQETASHN
notes: also called hB7-H7-Fc; soluble B7-H7

Key:
[1] = biological target: T1, human B7-H7 (soluble analyte in SPR) (human, UniProt Q9UM44 23-344, limits assumed); assay: SPR (Biacore)
T1 sequence: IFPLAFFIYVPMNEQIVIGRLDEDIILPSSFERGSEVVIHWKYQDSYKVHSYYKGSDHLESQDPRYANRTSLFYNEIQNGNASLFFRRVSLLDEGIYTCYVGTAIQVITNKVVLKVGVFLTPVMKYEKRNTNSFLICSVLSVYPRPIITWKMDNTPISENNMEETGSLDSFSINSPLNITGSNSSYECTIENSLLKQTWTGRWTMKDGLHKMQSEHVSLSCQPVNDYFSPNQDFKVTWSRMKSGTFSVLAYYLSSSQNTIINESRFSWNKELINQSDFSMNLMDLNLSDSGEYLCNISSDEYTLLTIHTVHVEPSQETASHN
Procedure: (§1) The binding affinities of exemplary anti-B7-H7 antibodies to human B7-H7 and cyno B7-H7 were measured using SPR technology (Biacore system, GE Healthcare Life Sciences). Briefly, anti-Fc antibody (Sigma-Aldrich) was immobilized on all four flow cells of a CM5 chip using amine coupling reagents (GE Healthcare LifeSciences). Exemplary antibodies were captured on flow cells 2, 3, and 4 using flow cell 1 as a reference. Human B7-H7 or cyno B7-H7 (samples ranging from 0.62-40 nM) were injected at a flow rate of 50 μL/min at 37° C. Kinetic data were collected over time and fit using the simultaneous global fit equation to yield affinity constants (KD values) for each antibody.
The binding affinity of Hz2D7 to human B7-H7 and cyno B7-H7 was determined using SPR technology (Biacore system) as described herein and compared with the binding affinity of the parental antibody and with a chimeric 2D7 antibody comprising the murine heavy chain and light chain variable regions of 2D7 and a human Fc region.

[2] = biological target: B2; assay: FACS competition: antibody titrated against soluble hB7-H7-Fc binding to HEK-293 cells expressing human CD28H
Procedure: (§2) Exemplary anti-B7-H7 antibodies identified by ELISA and FACS were tested for their ability to block binding of soluble B7-H7 to receptors KIR3DL3 or CD28H in a FACS assay. HEK-293 cells were transiently transfected with a construct encoding (i) a membrane-bound KIR3DL3 protein or (ii) a membrane-bound CD28H protein. After 48 hours, transfected cells were suspended in ice cold PBS containing 1% FBS and 0.1% sodium azide and incubated on ice in the presence of […]/ml of soluble human B7-H7-Fc protein and antibodies 2D7, 1D3, 28F3, 16D5, 2F10, 5F7, 5B10, 5C9, or 3H6 (serially diluted from […] to 4.6 ng/ml). A second incubation with an anti-human Fc secondary antibody was performed to detect cells bound by the soluble B7-H7-Fc. The cells were analyzed on a BD FACSCalibur instrument (BD Biosciences) and the data was processed using FlowJo software. Calculated IC50s are shown Table 12.

[3] = biological target: T2, human B7-H7 expressed on the cell surface (human, UniProt Q9UM44 23-414); assay: cell-based or functional assay
T2 sequence: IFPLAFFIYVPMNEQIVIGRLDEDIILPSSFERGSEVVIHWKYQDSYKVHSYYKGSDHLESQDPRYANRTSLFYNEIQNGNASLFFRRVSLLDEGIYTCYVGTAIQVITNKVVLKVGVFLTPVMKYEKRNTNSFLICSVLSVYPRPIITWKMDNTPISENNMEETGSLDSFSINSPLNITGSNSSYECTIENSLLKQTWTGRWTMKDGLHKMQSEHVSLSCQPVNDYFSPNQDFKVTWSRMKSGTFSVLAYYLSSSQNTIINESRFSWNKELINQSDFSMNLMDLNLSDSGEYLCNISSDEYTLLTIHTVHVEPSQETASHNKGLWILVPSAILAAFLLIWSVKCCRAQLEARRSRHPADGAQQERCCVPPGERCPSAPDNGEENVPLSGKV

[4] = biological target: T1, human B7-H7 (soluble analyte in SPR); assay: SPR (Biacore), antibody captured by anti-Fc on CM5 chip, B7-H7 injected, 37 C
Procedure: as §1

[5] = biological target: B2; assay: FACS competition: antibody titrated against soluble hB7-H7-Fc binding to HEK-293 cells expressing human KIR3DL3
Procedure: as §2

[6] = biological target: T3, human KIR3DL3 expressed on the cell surface (human, UniProt Q8N743 26-410); assay: cell-based fluorescence assay (CellInsight): soluble B7-H7-Fc titrated on HEK-293T cells transfected with KIR3DL3, Alexa Fluor 488 anti-human Fc detection; soluble B7-H7-Fc on KIR3DL3-transfected cells
T3 construct: also called cells expressing human KIR3DL3
Procedure: (§3) The molecule CD28H has previously been identified as a receptor of B7-H7 (Zhu et al., 2013, Nature Communications, ncomms3043; Zhu et al. refer to B7-H7 as “B7-H5”). Studies by the inventors have identified KIR3DL3 as a second receptor for B7-H7. HEK-293T cells were transiently transfected with a KIR3DL3 construct. 40,000 cells were aliquoted into each well of a 384-well plate and were transfected with 200 ng of plasmid DNA encoding KIR3DL3 using Lipofectamine™ 2000 (ThermoFisher Scientific). After 48 hours, soluble B7-H7-Fc (serially diluted from 10 to 0.16 pg/ml) was added to the wells and plates were incubated from one hour at room temperature. An Alexa Fluor® 488-labeled anti-human Fc secondary antibody was added to the wells and plates were incubated for one hour at room temperature. Cells were washed with HBSS and fixed for 15 minutes with 7.4% formalin in PBS. Cells were washed with PBS and the fluorescence signals were detected using a CellInsight™ platform (ThermoFisher Scientific). A similar experiment was conducted with cells transiently transfected with a B7-H7 construct and soluble biotinylated KIR3DF3 ECD. An Alexa Fluor® 488-labeled streptavidin was used for detection.

[7] = biological target: T2, human B7-H7 expressed on the cell …; assay: cell-based fluorescence assay (CellInsight): soluble biotinylated KIR3DL3 ECD on cells transfected with B7-H7, Alexa Fluor 488 streptavidin detection; soluble biotinylated KIR3DL3 ECD on B7-H7-transfected cells
Procedure: as §3

B1: anti-B7-H7 antibody 2D7 (antibody, V domains shown)
VH: EVQLQQSGPELVKPGASVKISCKTSGYTFTEYTMHWVKQSHGKSLEWIGGINPNNYGAPYNQKFKGKATLTVDKSSNTAYMELRSLTSEDSAIYYCASGGYYFDYWGQGTTLTVSS
VL: DIVMTQSHKFMSTSFGDRVSITCKASQDVGTAVAWYQQKLGQSPKLLISWAFTRHTGVPDRFTGSGSGTDYTLTISSLQAEDLALYYCQQHYDTPFTFGSGTKLEIK
notes: Parental mouse hybridoma antibody raised against human B7-H7-Fc
Kd [1]: < 0.1 nM
koff [1]: 1e-05 s⁻¹
IC50 [2]: 2.1 nM
Induction of NK-92 cytotoxicity EC50 [3]: 1 nM
Kd [4]: < 0.1 nM
IC50 [5]: 2 nM

B2
Kd [6]: 15 nM

B3: soluble biotinylated KIR3DL3 ECD (receptor)
chain: QDKPFLSAWPGTVVSEGQHVTLQCRSRLGFNEFSLSKEDGMPVPELYNRIFRNSFLMGPVTPAHAGTYRCCSSHPHSPTGWSAPSNPVVIMVTGVHRKPSLLAHPGPLVKSGETVILQCWSDVRFERFLLHREGITEDPLRLVGQLHDAGSQVNYSMGPMTPALAGTYRCFGSVTHLPYELSAPSDPLDIVVVGLYGKPSLSAQPGPTVQAGENVTLSCSSRSLFDIYHLSREAEAGELRLTAVLRVNGTFQANFPLGPVTHGGNYRCFGSFRALPHAWSDPSDPLPVSVTGNSRHL
modifications: biotinylated (site not stated)
notes: also called soluble biotinylated KIR3DF3 ECD (so in the source); soluble KIR3DL3
Kd [7]: 192 nM
